Entries after “also recorded” stand apart in the source; their conditions may differ.
How the values were obtained:
Dynorphine A, P01213 = target: T1, Dynorphine A, P01213
T1 chain: YGGFLRRIRPKLKWDNQ

[1] = target: fusion protein PRhCT, P01258
[2] = target: fusion protein expressed by pG117S4HompRHKR
[3] = target: fusion protein PRhANP, P01160
Sequence of fusion protein PRhANP, P01160 (P01160 other isoform, or with tags, fused parts or gaps): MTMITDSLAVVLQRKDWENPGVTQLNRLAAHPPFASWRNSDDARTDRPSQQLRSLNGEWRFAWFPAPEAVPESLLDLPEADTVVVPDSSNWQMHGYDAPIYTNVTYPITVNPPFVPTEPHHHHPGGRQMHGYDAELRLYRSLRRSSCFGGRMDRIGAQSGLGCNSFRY

Sequence of fusion protein PRhCT, P01258 (P01258 other isoform, or with tags, fused parts or gaps): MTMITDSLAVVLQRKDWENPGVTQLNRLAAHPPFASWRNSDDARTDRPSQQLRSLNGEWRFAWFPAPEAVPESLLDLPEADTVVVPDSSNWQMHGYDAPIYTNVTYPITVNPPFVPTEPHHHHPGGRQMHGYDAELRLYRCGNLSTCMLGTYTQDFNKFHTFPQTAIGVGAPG

B1: E. coli OmpT protease (purified OmpT protease specimen) (protein)
chain: STETLSFTPDNINADISLGTLSGKTKERVYLAEEGGRKVSQLDWKFNNAAIIKGAINWDLMPQISIGAAGWTTLGSRGGNMVDQDWMDSSNPGTWTDESRHPDTQLNYANEFDLNIKGWLLNEPNYRLGLMAGYQESRYSFTARGGSYIYSSEEGFRDDIGSFPNGERAIGYKQRFKMPYIGLTGSYRYEDFELGGTFKYSGWVESSDNDEHYDPGKRITYRSKVKDQNYYSVAVNAGYYVTPNAKVYVEGAWNRVTNKKGNTSLYDHNNNTSDYSKNGAGIENYNFITTAGLKYTF
Fusion protein PRA
  cleavage efficiency by OmpT protease: Alanine and serine were employed because they showed relatively high cleavage efficiency in Example 3; also recorded: Alanine and cysteine were selected because they provided relatively high cleavage efficiency in Example 3
Dynorphine A, P01213
  OmpT protease activity (cleavage of Dynorphine A, HPLC): 40 U/ml
Fusion protein PRR-1A
  cleavage by OmpT protease (SDS-PAGE): The PRR-1A was not cleaved by OmpT protease
Fusion protein PKD
  cleavage by OmpT protease (SDS-PAGE): PKD and PKE were not cleaved by OmpT protease
[1]
  cleavage by OmpT protease (SDS-PAGE): PRhCT was not cleaved thereby
Fusion protein RChANP
  cleavage at sites inside the α-hANP moiety: arginine-arginine alone was slightly cleaved, among the four sites (arginine-arginine, arginine-methionine, arginine-isoleucine and arginine-tyrosine) existing in α-hANP molecule ... while the other bonds were scarcely cleaved
  cleavage by OmpT protease (SDS-PAGE): cleavage by OmpT protease was observed in RRhANP, RAhANP and RChANP
Fusion protein PRC
  cleavage efficiency by OmpT protease: Alanine and cysteine were selected because they provided relatively high cleavage efficiency in Example 3
Fusion protein PRR-4D
  Relative amount of 4.9 kDa peptide (HPLC; OmpT 2.0 U/ml, 25 C, 60 min) (relative to PRR = 100): 2.8
  cleavage by OmpT protease (SDS-PAGE; OmpT 2.0 U/ml): the cleavage by OmpT protease was observed in all of the fusion proteins
Fusion protein PRR-3A
  Relative amount of 4.9 kDa peptide (HPLC; 25 C, 60 min, pH 7.0) (relative to PRR = 100): 44
  cleavage by OmpT protease (SDS-PAGE): the cleavage by OmpT protease was confirmed in the fusion proteins other than PRR-1A
[2]
  cleavage by OmpT protease (preliminary experiments): this fusion protein is cleaved at two sites when treated with OmpT protease
[3]
  cleavage by OmpT protease (SDS-PAGE): PRhANP was cleaved by OmpT protease
Fusion protein PRS
  cleavage efficiency by OmpT protease: Alanine and serine were employed because they showed relatively high cleavage efficiency in Example 3
Fusion protein PRR-4A
  Relative amount of 4.9 kDa peptide (HPLC; 25 C, 60 min, pH 7.0) (relative to PRR = 100): 24
  Relative amount of 4.9 kDa peptide (HPLC; OmpT 2.0 U/ml, 25 C, 60 min) (relative to PRR = 100): 49
  cleavage by OmpT protease (SDS-PAGE): the cleavage by OmpT protease was confirmed in the fusion proteins other than PRR-1A
  cleavage by OmpT protease (SDS-PAGE; OmpT 2.0 U/ml): the cleavage by OmpT protease was observed in all of the fusion proteins
Fusion protein PRR-2A
  Relative amount of 4.9 kDa peptide (HPLC; 25 C, 60 min, pH 7.0) (relative to PRR = 100): 150
  cleavage by OmpT protease (SDS-PAGE): the cleavage by OmpT protease was confirmed in the fusion proteins other than PRR-1A
Fusion protein PKE
  cleavage by OmpT protease (SDS-PAGE): PKD and PKE were not cleaved by OmpT protease
Fusion protein RShANPR
  relative amount of the released α-hANP (HPLC peak at 4.7 minutes; OmpT 2.0 U/ml, 25 C, 90 min): 2.2 times as much as that of RShANP
Fusion protein PRR-6Q
  Relative amount of 4.9 kDa peptide (HPLC; OmpT 0.1 U/ml, 25 C, 60 min) (relative to PRR = 100): 390
  cleavage by OmpT protease (SDS-PAGE; OmpT 0.1 U/ml): the cleavage by OmpT protease was observed in all of the fusion proteins
Fusion protein PRR-6R
  Relative amount of 4.9 kDa peptide (HPLC; OmpT 0.1 U/ml, 25 C, 60 min) (relative to PRR = 100): 1000
  cleavage by OmpT protease (SDS-PAGE; OmpT 0.1 U/ml): the cleavage by OmpT protease was observed in all of the fusion proteins
Fusion protein RAhANP
  cleavage at sites inside the α-hANP moiety: arginine-arginine alone was slightly cleaved, among the four sites (arginine-arginine, arginine-methionine, arginine-isoleucine and arginine-tyrosine) existing in α-hANP molecule ... while the other bonds were scarcely cleaved
  cleavage by OmpT protease (SDS-PAGE): cleavage by OmpT protease was observed in RRhANP, RAhANP and RChANP
Fusion protein PKK
  cleavage by OmpT protease (SDS-PAGE): PKK and PKR employed as positive controls were cleaved by OmpT protease
Fusion protein PRR-6A
  Relative amount of 4.9 kDa peptide (HPLC; 25 C, 60 min, pH 7.0) (relative to PRR = 100): 330
  Relative amount of 4.9 kDa peptide (HPLC; OmpT 0.1 U/ml, 25 C, 60 min) (relative to PRR = 100): 310
  cleavage by OmpT protease (SDS-PAGE): the cleavage by OmpT protease was confirmed in the fusion proteins other than PRR-1A
  cleavage by OmpT protease (SDS-PAGE; OmpT 0.1 U/ml): the cleavage by OmpT protease was observed in all of the fusion proteins
Fusion protein PKR
  cleavage by OmpT protease (SDS-PAGE): PKK and PKR employed as positive controls were cleaved by OmpT protease
Fusion protein PRR-5A
  Relative amount of 4.9 kDa peptide (HPLC; 25 C, 60 min, pH 7.0) (relative to PRR = 100): 89
  cleavage by OmpT protease (SDS-PAGE): the cleavage by OmpT protease was confirmed in the fusion proteins other than PRR-1A
Fusion protein PRR-6K
  Relative amount of 4.9 kDa peptide (HPLC; OmpT 0.1 U/ml, 25 C, 60 min) (relative to PRR = 100): 1400
  cleavage by OmpT protease (SDS-PAGE; OmpT 0.1 U/ml): the cleavage by OmpT protease was observed in all of the fusion proteins
Fusion protein RRhANP
  cleavage at sites inside the α-hANP moiety: arginine-arginine alone was slightly cleaved, among the four sites (arginine-arginine, arginine-methionine, arginine-isoleucine and arginine-tyrosine) existing in α-hANP molecule ... while the other bonds were scarcely cleaved
  cleavage by OmpT protease (SDS-PAGE): cleavage by OmpT protease was observed in RRhANP, RAhANP and RChANP
Fusion protein PRR-6D
  Relative amount of 4.9 kDa peptide (HPLC; OmpT 0.1 U/ml, 25 C, 60 min) (relative to PRR = 100): 110
  cleavage by OmpT protease (SDS-PAGE; OmpT 0.1 U/ml): the cleavage by OmpT protease was observed in all of the fusion proteins
Fusion protein PRR-9A
  Relative amount of 4.9 kDa peptide (HPLC; 25 C, 60 min, pH 7.0) (relative to PRR = 100): 160
  cleavage by OmpT protease (SDS-PAGE): the cleavage by OmpT protease was confirmed in the fusion proteins other than PRR-1A
Fusion protein PRR-6N
  Relative amount of 4.9 kDa peptide (HPLC; OmpT 0.1 U/ml, 25 C, 60 min) (relative to PRR = 100): 430
  cleavage by OmpT protease (SDS-PAGE; OmpT 0.1 U/ml): the cleavage by OmpT protease was observed in all of the fusion proteins
Fusion protein PRR-4Q
  Relative amount of 4.9 kDa peptide (HPLC; OmpT 2.0 U/ml, 25 C, 60 min) (relative to PRR = 100): 23
  cleavage by OmpT protease (SDS-PAGE; OmpT 2.0 U/ml): the cleavage by OmpT protease was observed in all of the fusion proteins
Fusion protein PRR-8A
  Relative amount of 4.9 kDa peptide (HPLC; 25 C, 60 min, pH 7.0) (relative to PRR = 100): 200
  cleavage by OmpT protease (SDS-PAGE): the cleavage by OmpT protease was confirmed in the fusion proteins other than PRR-1A
Fusion protein PRD
  cleavage by OmpT protease (SDS-PAGE): In PRD and PRE, no cleavage by OmpT protease was observed
Fusion protein PKS
  cleavage by OmpT protease (SDS-PAGE): PKA and PKS forming no basic amino acid pair were cleaved by OmpT protease
Fusion protein PRR-4K
  Relative amount of 4.9 kDa peptide (HPLC; OmpT 2.0 U/ml, 25 C, 60 min) (relative to PRR = 100): 96
  cleavage by OmpT protease (SDS-PAGE; OmpT 2.0 U/ml): the cleavage by OmpT protease was observed in all of the fusion proteins
Fusion protein PRR
  Relative amount of 4.9 kDa peptide (HPLC; 25 C, 60 min, pH 7.0) (relative to PRR = 100): 100
  Relative amount of 4.9 kDa peptide (HPLC; OmpT 0.1 U/ml, 25 C, 60 min) (relative to PRR = 100): 100
  Relative amount of 4.9 kDa peptide (HPLC; OmpT 2.0 U/ml, 25 C, 60 min) (relative to PRR = 100): 100
  cleavage by OmpT protease (SDS-PAGE): the cleavage by OmpT protease was confirmed in the fusion proteins other than PRR-1A
  cleavage by OmpT protease (SDS-PAGE; OmpT 0.1 U/ml): the cleavage by OmpT protease was observed in all of the fusion proteins
  cleavage by OmpT protease (SDS-PAGE; OmpT 2.0 U/ml): the cleavage by OmpT protease was observed in all of the fusion proteins
Fusion protein PRR-4N
  Relative amount of 4.9 kDa peptide (HPLC; OmpT 2.0 U/ml, 25 C, 60 min) (relative to PRR = 100): 48
  cleavage by OmpT protease (SDS-PAGE; OmpT 2.0 U/ml): the cleavage by OmpT protease was observed in all of the fusion proteins
Fusion protein PKA
  cleavage by OmpT protease (SDS-PAGE): PKA and PKS forming no basic amino acid pair were cleaved by OmpT protease
Fusion protein PRR-4E
  Relative amount of 4.9 kDa peptide (HPLC; OmpT 2.0 U/ml, 25 C, 60 min) (relative to PRR = 100): 2
  cleavage by OmpT protease (SDS-PAGE; OmpT 2.0 U/ml): the cleavage by OmpT protease was observed in all of the fusion proteins
Fusion protein PRE
  cleavage by OmpT protease (SDS-PAGE): In PRD and PRE, no cleavage by OmpT protease was observed
Fusion protein PRR-10A
  Relative amount of 4.9 kDa peptide (HPLC; 25 C, 60 min, pH 7.0) (relative to PRR = 100): 160
  cleavage by OmpT protease (SDS-PAGE): the cleavage by OmpT protease was confirmed in the fusion proteins other than PRR-1A
Fusion protein RShANP
  cleavage by OmpT protease (SDS-PAGE): it was confirmed that RShANP could be cleaved by OmpT protease

Source: US7344856
